Measurements from publication PMC4244684 (The Journal of biological chemistry, 2007).
Like-named read-outs stand apart in the source and are kept apart here.

Key:
Test in all cases: ITC
[1] = molecular target: Su(dx) WW3-4 tandem domain pair (Drosophila, UniProt Q9Y0H4 474-554)
[2] = molecular target: Su(dx) WW3-4 preloaded (saturated) with WBP1 peptide (Drosophila | , UniProt Q9Y0H4 474-554)
Su(dx) WW2 domain [3] = molecular target: T1, Su(dx) WW2 domain (Drosophila, UniProt Q9Y0H4 392-431)
Su(dx) WW1 domain = molecular target: T2, Su(dx) WW1 domain (Drosophila, UniProt Q9Y0H4 352-398)
T2 chain (looked up): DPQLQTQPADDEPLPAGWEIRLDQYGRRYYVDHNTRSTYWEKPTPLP

Su(dx) WW3 domain [4] = molecular target: T3, Su(dx) WW3 domain (Drosophila, UniProt Q9Y0H4 471-514)
T3 sequence (Q9Y0H4 471-514): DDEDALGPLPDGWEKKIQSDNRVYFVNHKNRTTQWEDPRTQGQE

[5] = molecular target: Su(dx) WW4 (F549W) mutant domain (Drosophila, UniProt Q9Y0H4 515-557, F549W)
Su(dx) WW4 (F549W) mutant domain, sequence (Q9Y0H4 515-557 F549W): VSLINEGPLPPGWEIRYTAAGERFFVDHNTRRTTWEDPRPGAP

[6] = molecular target: Su(dx) WW3-4 (W505F) mutant tandem pair (Drosophila, UniProt Q9Y0H4 474-554, W505F)
Su(dx) WW3-4 (W505F) mutant tandem pair, sequence (Q9Y0H4 474-554 W505F): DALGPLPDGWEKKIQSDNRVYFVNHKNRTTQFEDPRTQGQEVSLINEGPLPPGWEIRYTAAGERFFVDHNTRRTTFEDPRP

Su(dx) WW4 domain = Su(dx) WW4 domain (Drosophila, UniProt Q9Y0H4 515-557)
Su(dx) WW4 domain, sequence (Q9Y0H4 515-557): as the sequence (Q9Y0H4 515-557 F549W) above, with W35F counted along it

Su(dx) WW2 domain [7] = molecular target: T1, Su(dx) WW2 domain; remark: listed apart in the source
Su(dx) WW3 domain [8] = molecular target: T3, Su(dx) WW3 domain; remark: listed apart in the source

T1 sequence (Q9Y0H4 392-431): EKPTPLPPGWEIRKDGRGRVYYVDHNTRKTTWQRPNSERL
Su(dx) WW3-4 tandem domain pair, sequence (Q9Y0H4 474-554): as the sequence (Q9Y0H4 474-554 W505F) above, with F32W counted along it
Su(dx) WW3-4 preloaded (saturated) with WBP1 peptide, sequence (Q9Y0H4 474-554): as the sequence (Q9Y0H4 474-554 W505F) above, with F32W counted along it

Binder AKQPPSYEDCIK [Notch PY motif peptide N1] has a Kd [1] of 95 µM, a Kd [2] of 42 µM and a Kd (Su(dx) WW2 domain [3]) of 199 µM. The Kd (Su(dx) WW1 domain) was 214 µM, the Kd (Su(dx) WW3 domain [4]) was 208 µM and the Kd [5] was 15 µM. The Kd [6] was 97 µM and the Kd (Su(dx) WW4 domain) was 45 µM.

AKQPPSYEDC [Notch PY motif peptide N2] gave a Kd (Su(dx) WW4 domain) of 45 µM.

Binder GPPPPPYPG [WBP1 peptide] has a Kd (Su(dx) WW2 domain [7]) of 117 µM, a Kd (Su(dx) WW3 domain [8]) of 115 µM and a Kd [1] of 185 µM. For the same binder, the Kd (Su(dx) WW2 domain [3]) was 116 µM, the Kd (Su(dx) WW1 domain) was 125 µM and the Kd (Su(dx) WW3 domain [4]) was 114 µM. It also gave a Kd [5] of 31 µM.
